Source: US20100323957A1, “NOVEL ASSAY FOR INHIBITORS OF EGFR” (THE REGENTS OF THE UNIVERSITY OF CALIFORNIA THE OFFICE OF …, priority 2007, published 2010)

What was measured:
[1] = biological target: EGFR kinase domain I682Q mutant with N-terminal His tag and linker (human) (UniProt P00533); experiment: anisotropy
[2] = biological target: wild-type EGFR kinase domain (residues 672-998 of human EGFR) with N-terminal 6-His tag, linker and TEV site (human) (UniProt P00533); experiment: cell-based or functional assay
[3] = biological target: EGFR kinase domain L834R mutant (human) (UniProt P00533); experiment: cell-based or functional assay

Sequence of 30-residue fluorescein-labelled MIG6 peptide (residues 334-363) (Q9UJM3 334-363): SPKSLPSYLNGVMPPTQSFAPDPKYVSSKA

IC50, inhibition of kinase activity in solution [3] [µM]	Substance	other results
–	30-residue fluorescein-labelled MIG6 peptide (residues 334-363) (from UniProt Q9UJM3 334-363)	Kd [1]: 18.3 µM
–	40-residue MIG6 peptide (residues 325-364) (from UniProt Q9UJM3 325-364)	IC50, inhibition of activated EGFR kinase [2]: 10 µM
0.2	MIG6(segments 1-2) peptide (residues 336-412) (from UniProt Q9UJM3 336-412)	–
5	MIG6(segments 1-2) peptide (residues 336-412) bearing Y358A (from UniProt Q9UJM3 336-412)	–
